Consider one substance from US20170210777A1.

This assay concerns the target human IgG antibody (human). In words: SPR (Biacore), ligand immobilised on CM5.

“modified protein A (manufactured by Sino Biological Inc.)” had a koff of 0.00032 s⁻¹.
